We go through 14 molecules from patent US20220289833A1 (BIOSION, published 2022).

In general, Kd refers to the free concentration of one partner at which half of the binding sites on the other are occupied at equilibrium, for simple one-to-one binding. For orientation: koff means the first-order rate constant of dissociation. The kon is the rate constant with which the complex forms. One may read the EC50 as the concentration that produces a half-maximal response. By IC50 is commonly meant the concentration that inhibits the measured activity by half.

Changes are numbered by the printed parent chain. Where two headings read alike, the source gives them in different places.

The target in test [1] is T1, Recombinant human TSLP-his (human, UniProt Q969D9 29-159).
T1 construct: Prepared in-house; Amine-coupled to CM5 chip in SPR, loaded on APS sensors in Octet, biotin-labeled in the capture ELISA, unlabeled in the cell functional assays; also called human TSLP-his protein
The test is described as follows: SPR, BIAcore; protocol of Example 2. Background: SPR reads the build-up and loss of mass on a sensor chip optically.

For test [2], the target named is T2, Recombinant cynomolgus monkey TSLP-his (cynomolgus monkey).
T2 construct: Prepared in-house; Amine-coupled to CM5 chip in SPR, coated on plates in the indirect ELISA; also called cynomolgus TSLP; cynomolgus TSLP-his protein
T2 chain: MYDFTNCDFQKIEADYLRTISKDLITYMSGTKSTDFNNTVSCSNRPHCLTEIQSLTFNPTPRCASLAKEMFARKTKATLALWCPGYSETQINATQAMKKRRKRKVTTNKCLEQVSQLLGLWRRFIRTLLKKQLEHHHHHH
The test is described as follows: SPR, BIAcore; protocol of Example 2.

Test [3] addresses T1, Recombinant human TSLP-his. The test is described as follows: SPR, Biacore T200; protocol of Example 2.
Test [4] addresses T2, Recombinant cynomolgus monkey TSLP-his. Put plainly: indirect ELISA on coated cynomolgus TSLP-his.
The target in test [5] is T1, Recombinant human TSLP-his. The test is described as follows: BLI, Octet; TSLP-his loaded on APS biosensor, antibody in solution; 1:1 Langmuir fit. (In general: BLI is a label-free optical method that tracks binding on a fibre tip over time.)
Test [6] addresses T3, human TSLP-Fc (human, biotin-labeled).
T3 construct: Prepared in-house; also called biotin-labeled human TSLP-Fc; TSLP-Fc-biotin
The test is described as follows: competitive ELISA: antibody pre-mixed with biotin-labeled human TSLP-Fc; blocked binding to coated Tezepelumab. On the technique in general: ELISA stands for enzyme-linked immunosorbent assay.

Test [7] has as its target T1, Recombinant human TSLP-his. Put plainly: capture ELISA: antibody captured on anti-IgG Fc coat, biotin-labeled human TSLP-his detected with streptavidin-HRP.
For test [8], the target named is T1, Recombinant human TSLP-his. The test is described as above. The source holds these as a separate data set.
Test [9] has as its target T3, human TSLP-Fc. The test is described as follows: competitive ELISA: antibody pre-mixed with biotin-labeled human TSLP-Fc; blocked binding to coated human TSLPR-Fc/IL7Ra-Fc.
Test [10] deals with T3, human TSLP-Fc. The test is described as follows: cell-based ligand-blocking FACS: antibody pre-mixed with human TSLP-Fc; blocked binding to BAF3-3E6 cells expressing human TSLPR and IL7R.
Test [11] addresses T3, human TSLP-Fc. Described as above. The source holds these as a separate data set.
Test [12] has as its target T3, human TSLP-Fc. The test is described as follows: competitive ELISA: antibody pre-mixed with biotin-labeled human TSLP-Fc; blocked binding to coated Tezepelumab. This is another data set of the same source.
Test [13] has as its target T1, Recombinant human TSLP-his. The test is described as follows: capture ELISA: antibody captured on anti-IgG Fc coat, biotin-labeled human TSLP-his detected with streptavidin-HRP. This is another data set of the same source.
For test [14], the target named is T3, human TSLP-Fc. Put plainly: cell-based ligand-blocking FACS: antibody pre-mixed with human TSLP-Fc; blocked binding to BAF3-3E6 cells expressing human TSLPR and IL7R. This is another data set of the same source.
Test [15] concerns the target T3, human TSLP-Fc. The test is described as follows: competitive ELISA: antibody pre-mixed with biotin-labeled human TSLP-Fc; blocked binding to coated human TSLPR-Fc/IL7Ra-Fc. The source holds these as a separate data set.
The target in test [16] is T1, Recombinant human TSLP-his. Put plainly: SPR, Biacore T200; below the instrument limit, roughly calculated from the sensorgram.

B1: Chimeric 1C5F12E9 (antibody, human IgG1, kappa, V domains shown)
VH: QVQLQQPGTELVKPGASVKMSCKASGYTFTTYWMHWVKQRPGQGLEWIGVIDPSDSDTTYNQKFKGKATLTVDTSSSTAYMQLSSLTSEDSAVYYCTRSLDGYYDYWGQGTTLTVSS
VL: DIQMTQSPASLSASVGETVTITCRPTENIYSYLAWYQQKQGKSPHLLVYFARTLAEGVPSRFSGSGSGTQFSLKINSLQPEDFGIYYCQHHYGTPWTFGGGTKLEIKR
notes: Human IgG1/kappa chimera expressed in 293F cells; also called chimeric 1C5F12E9 antibody
Regarding B1, the Kd in [1] is under 0.0517 nM; in test [2] it was under 0.0261 nM; in [3] it was 0.914 nM; in test [5] it was 0.222 nM. Besides, the koff in test [1] was under 1e-05 s⁻¹; in test [2] it was under 1e-05 s⁻¹; in test [3] it was 6.36e-05 s⁻¹; in test [5], 0.000159 s⁻¹. Moreover, the kon in test [1] is 193000 M⁻¹ s⁻¹; in test [2], 383000 M⁻¹ s⁻¹; in test [3], 69600 M⁻¹ s⁻¹; in test [5], 715000 M⁻¹ s⁻¹. For the same molecule, the figures for the 50% effective concentration (EC50) in [4], in test [7] and in test [8] were 0.0918 nM, 0.448 nM and 0.161 nM, respectively. Moreover, the IC50 was 0.291 nM with human TSLP-Fc [6], 0.1 nM with human TSLP-Fc [9], 0.627 nM in the test with human TSLP-Fc [10] and about 3.12 nM in the test with human TSLP-Fc [11].

B2: hu1C5F12E9-V8 (IgG4) (antibody)
heavy: not shown
light: DIQMTQSPSSLSASVGDRVTITCRPTENIYSYLAWYQQKPGKAPKLLIYFARTLAEGVPSRFSGSGSGTDFTLTISSLQPEDFATYYCQHHYGTPWTFGGGTKVEIKRTVAAPSVFIFPPSDEQLKSGTASVVCLLNNFYPREAKVQWKVDNALQSGNSQESVTEQDSKDSTYSLSSTLTLSKADYEKHKVYACEVTHQGLSSPVTKSFNRGEC
notes: also called huC5F12E9-V8
Consider B2, for which the results for the Kd in [1] and in [2] were under 0.0598 nM and under 0.0328 nM, respectively. Moreover, the EC50 stood at 0.17 nM in test [4], 0.173 nM in test [8] and 0.124 nM in test [13]. Moreover, the IC50 was 0.381 nM with human TSLP-Fc [6]; 1.06 nM with human TSLP-Fc [12]; 0.145 nM with human TSLP-Fc [9]; 2.38 nM in the test with human TSLP-Fc [11]; about 1.1 nM with human TSLP-Fc [14].

B3: hu1C5F12E9-V8 (IgG1) (antibody)
heavy: not shown
light: B2 light
notes: Humanized, human IgG1/kappa
As to B3, the IC50 with human TSLP-Fc [12] was 0.78 nM; with human TSLP-Fc [15] it was 0.707 nM; in the test with human TSLP-Fc [14] it was about 1.12 nM. Besides, in test [13], the EC50 was found to be 0.116 nM.

B4: hu1C5F12E9-V14 (IgG1) (antibody)
heavy: not shown
light: B2 light with A43S
notes: Humanized, human IgG1/kappa
On to B4, for which the IC50 with human TSLP-Fc [12] is 0.806 nM; with human TSLP-Fc [15] it was 0.758 nM; with human TSLP-Fc [14] it was about 1.14 nM. The EC50 in test [13] is 0.11 nM.

B5: hu1C5F12E9-V14 (IgG4) (antibody)
heavy: not shown
light: B2 light with A43S
notes: also called huC5F12E9-V14
Take B5: the dissociation constant Kd is under 0.061 nM in test [1], under 0.0322 nM in [2] and under 0.0956 nM in test [3]. Besides, the koff in test [1] was under 1e-05 s⁻¹; in [2] it was under 1e-05 s⁻¹; in [3], under 1e-05 s⁻¹; in test [16], about 3.21e-06 s⁻¹. Besides, the results for the on-rate constant (kon) in test [1], in test [2] and in test [3] were 164000 M⁻¹ s⁻¹, 311000 M⁻¹ s⁻¹ and 105000 M⁻¹ s⁻¹, respectively. The EC50 in [4] is 0.151 nM; in [8], 0.169 nM; in [13], 0.102 nM. Further, the half-maximal inhibitory concentration (IC50) is 0.403 nM with human TSLP-Fc [6]; 0.909 nM with human TSLP-Fc [12]; 0.123 nM with human TSLP-Fc [9]; 0.958 nM with human TSLP-Fc [15]; about 3.07 nM with human TSLP-Fc [11]; about 1.09 nM with human TSLP-Fc [14].

B6: hu1C5F12E9-V5 (antibody, human IgG4 S228P, kappa, V domains shown)
VH: QVQLVQSGAEVKKPGASVKVSCKASGYTFTTYWMHWVRQAPGQGLEWMGVIDPSDSDTTYNQKFKGKATMTRDTSTSTVYMELSSLRSEDTAVYYCTRSLDGYYDYWGQGTLVTVSS
VL: DIQMTQSPSSLSASVGDRVTITCRPTENIYSYLAWYQQKPGKSPKLLVYFARTLAEGVPSRFSGSGSGTDFTLTISSLQPEDFATYYCQHHYGTPWTFGGGTKVEIKR
As for B6, in [3], the equilibrium dissociation constant (Kd) is under 0.0971 nM, the off-rate constant (koff) was under 1e-05 s⁻¹ and the on-rate (kon) was determined as 103000 M⁻¹ s⁻¹. Moreover, in test [16], the off-rate constant (koff) is under 1e-05 s⁻¹.

B7: hu1C5F12E9-V18 (antibody, human IgG4 S228P, kappa, V domains shown)
VH: B6 VH with R72V
VL: B6 VL with V48I
In the case of B7, in test [3], the dissociation constant Kd is under 0.0826 nM, the dissociation rate constant (koff) was under 1e-05 s⁻¹ and the kon was 121000 M⁻¹ s⁻¹. For the same molecule, the koff in [16] was about 9.65e-06 s⁻¹.

B8: hu1C5F12E9-V11 (antibody, human IgG4 S228P, kappa, V domains shown)
VH: B6 VH
VL: B6 VL with S43A, V48I
With B8, in test [3], the equilibrium dissociation constant (Kd) is under 0.11 nM, the koff is under 1e-05 s⁻¹ and the on-rate (kon) was found to be 90700 M⁻¹ s⁻¹. Moreover, the koff in [16] was about 7.56e-07 s⁻¹.

B9: hu1C5F12E9-V12 (antibody, human IgG4 S228P, kappa, V domains shown)
VH: B6 VH with R72V
VL: B6 VL with S43A, V48I
In the case of B9, in test [3], the dissociation constant (Kd) was under 0.104 nM, the koff was under 1e-05 s⁻¹ and the association rate constant (kon) was found to be 96100 M⁻¹ s⁻¹. Further, the off-rate (koff) in test [16] is under 1e-05 s⁻¹.

B10: hu1C5F12E9-V7 (antibody, human IgG4 S228P, kappa, V domains shown)
VH: B6 VH with M48I, K67R, M70L, R72V, T76S, V79A
VL: B6 VL with S43A, V48I
On to B10, for which, in test [3], the dissociation constant Kd was under 0.0926 nM, the koff was under 1e-05 s⁻¹ and the kon came out at 108000 M⁻¹ s⁻¹. For the same molecule, in test [16], the koff is under 1e-05 s⁻¹.

B11: hu1C5F12E9-V15 (antibody, human IgG4 S228P, kappa, V domains shown)
VH: B6 VH with K67R, A68V, R72V
VL: B6 VL with V48I
For the molecule B11, in test [3], the Kd is under 0.0893 nM, the off-rate constant (koff) was under 1e-05 s⁻¹ and the kon came to 112000 M⁻¹ s⁻¹. Further, the koff in test [16] was about 3.63e-06 s⁻¹.

B12: hu1C5F12E9-V9 (antibody, human IgG4 S228P, kappa, V domains shown)
VH: B6 VH with K67R, A68V, R72V
VL: B6 VL with S43A, V48I
Regarding B12, in test [3], the Kd was under 0.082 nM, the dissociation rate constant (koff) is under 1e-05 s⁻¹ and the kon worked out at 122000 M⁻¹ s⁻¹. In addition, the koff in [16] is about 6.57e-07 s⁻¹.

B13: hu1C5F12E9-V17 (antibody, human IgG4 S228P, kappa, V domains shown)
VH: B6 VH
VL: B6 VL with V48I
Turning to B13, in test [3], the Kd was under 0.0909 nM, the koff is under 1e-05 s⁻¹ and the kon came to 110000 M⁻¹ s⁻¹. The koff in test [16] was about 6.43e-06 s⁻¹.

B14: hu1C5F12E9-V13 (antibody, human IgG4 S228P, kappa, V domains shown)
VH: B6 VH with M48I, K67R, M70L, R72V, T76S, V79A
VL: B6 VL with V48I
In the case of B14, in test [3], the dissociation constant (Kd) was under 0.0962 nM, the dissociation rate constant (koff) was under 1e-05 s⁻¹ and the on-rate (kon) was determined as 104000 M⁻¹ s⁻¹. Also, the koff in test [16] is about 3.62e-07 s⁻¹.
